From article PMC5983854, “Structure-guided approach to site-specific fluorophore labeling of the lac repressor LacI” (PLoS ONE, 2018)

How the values were obtained:
[1] = test system: LacIDimer-S28C (Escherichia coli); experiment: EMSA; conditions: apparent Kd; 3 mM MgCl2; EMSA: 1 nM DNA, 0.5-100 nM LacI, 10 mM Tris pH 7.5, 50 mM NaCl, 3 mM MgCl2, 1 mM TCEP, 0.1 mg/mL BSA, 5% glycerol, room temperature 1 h; TIRF: 100 mM phosphate
[2] = target: the molecule itself; experiment: SEC; analytical gel filtration on HiLoad 16/600 Superdex 200, 0.2 mL/min, buffer C (200 mM Tris-HCl pH 7.5, 200 mM KCl, 1 mM EDTA, 0.5 mM TCEP); column calibrated with proteins of known molecular weight; dimer to monomers

Molecule | Kd [1] [nM] | stoichiometry N [2]
5'-Cy5 O1 operator dsDNA | 5.63 | –
LacI^ΔCterm (lactose operon repressor LacI, tetramerization helix residues 339-360 replaced with a 6xHis tag) (domain or fragment, E. coli, UniProt P03023 1-338, looked up, Lactose operon repressor LacI, E. coli, 360 amino acid monomer; the native 22 C-terminal amino acids (tetramerization helix, residues 339-360) are replaced with a 6xHis tag, the rest is wild type; only the replaced stretch 339-360 is printed; source: E. coli TOP10 (pBAD24, arabinose-induced), purified (HisTrap HP, Superdex 200 SEC); not shown: His6, C-terminal, kept) MKPVTLYDVAEYAGVSYQTVSRVVNQASHVSAKTREKVEAAMAELNYIPNRVAQQLAGKQSLLIGVATSSLALHAPSQIVAAIKSRADQLGASVVVSMVERSGVEACKAAVHNLLAQRVSGLIINYPLDDQDAIAVEAACTNVPALFLDVSDQTPINSIIFSHEDGTRLGVEHLVALGHQQIALLAGPLSSVSARLRLAGWHKYLTRNQIQPIAEREGDWSAMSGFQQTMQMLNEGIVPTAMLVANDQMALGAMRAITESGLRVGADISVVGYDDTEDSSCYIPPLTTIKQDFRLLGQTSVDRLLQLSQGQAVKGNQLLPVSLVKRKTTLAPNTQTAS | – | 2
LacI^Dimer (LacI^ΔCterm with C107A, C140A; Cys281 retained) (domain or fragment, E. coli, UniProt P03023 1-338, looked up, Lactose operon repressor LacI, E. coli; residues 339-360 replaced with a 6xHis tag; Cys107 and Cys140 replaced with alanine, Cys281 retained; source: E. coli TOP10 (pBAD24, arabinose-induced), purified (HisTrap HP, Superdex 200 SEC); not shown: His6, C-terminal, kept) MKPVTLYDVAEYAGVSYQTVSRVVNQASHVSAKTREKVEAAMAELNYIPNRVAQQLAGKQSLLIGVATSSLALHAPSQIVAAIKSRADQLGASVVVSMVERSGVEAAKAAVHNLLAQRVSGLIINYPLDDQDAIAVEAAATNVPALFLDVSDQTPINSIIFSHEDGTRLGVEHLVALGHQQIALLAGPLSSVSARLRLAGWHKYLTRNQIQPIAEREGDWSAMSGFQQTMQMLNEGIVPTAMLVANDQMALGAMRAITESGLRVGADISVVGYDDTEDSSCYIPPLTTIKQDFRLLGQTSVDRLLQLSQGQAVKGNQLLPVSLVKRKTTLAPNTQTAS | – | 2
